Measurements taken from patent US20170267750A1, “Method of Treating Ovarian and Renal Cancer Using Antibodies Against T Cell Immunoglobulin Domain and Mucin Domain 1 (TIM-1) Antigen” (Celldex Therapeutics, Inc., priority 2005, published 2017).
Marks after values point to notes of the source that are not given here.

Tests used:
BT549 cells = test: FACS analysis on antigen negative BT549 breast cancer cells (control); type: binding, human; settings: normalized to isotype control (pK16)
TIM-1 antigen = molecular target: T1, TIM-1 antigen (Homo sapiens, UniProt Q96D42, DEL158-162/L179P); test: Epitope binning (antigen binding competition, Luminex)
T1 construct: V5; His; made in house; host or cells: baculovirus expression system (pMelV5His vector / pBlueBac)
T1 sequence (Q96D42 with tags, fused parts or gaps DEL158-162/L179P): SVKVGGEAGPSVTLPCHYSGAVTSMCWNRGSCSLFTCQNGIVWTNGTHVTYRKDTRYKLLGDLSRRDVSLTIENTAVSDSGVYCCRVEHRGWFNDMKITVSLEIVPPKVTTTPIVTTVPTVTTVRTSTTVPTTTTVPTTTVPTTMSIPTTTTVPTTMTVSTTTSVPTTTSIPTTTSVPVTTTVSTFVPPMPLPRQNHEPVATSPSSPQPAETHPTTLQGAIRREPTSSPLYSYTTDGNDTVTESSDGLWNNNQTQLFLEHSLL
Description: Certain antibodies, described herein were “binned” in accordance with the protocol described in U.S. Patent Application Publication No. 20030157730, published on Aug. 21, 2003, entitled “Antibody Categorization Based on Binding Characteristics.”
MxhIgG conjugated beads were prepared for coupling to primary antibody. The volume of supernatant needed was calculated using the following formula: (n+10)×50 μL (where n=total number of samples on plate). Where the concentration was known, 0.5 μg/mL was used. Bead stock was gently vortexed, then diluted in supernatant to a concentration of 2500 of each bead per well or 0.5×10^5/mL and incubated on a shaker in the dark at room temperature overnight, or 2 hours if at a known concentration of 0.5 μg/mL. Following aspiration, 50 μL of each bead was added to each well of a filter plate, then washed once by adding 100 μL/well wash buffer and aspirating. Antigen and controls were added to the filter plate 50 μL/well then covered and allowed to incubate in the dark for 1 hour on shaker. Following a wash step, a secondary unknown antibody was added at 50 μL/well using the same dilution (or concentration if known) as used for the primary antibody. The plates were then incubated in the dark for 2 hours at room temperature on shaker followed by a wash step. Next, 50 μL/well biotinylated mxhIgG diluted 1:500 was added and allowed to incubate in the dark for 1 hour on shaker at room temperature. Following a wash step, 50 μL/well Streptavidin-PE was added at 1:1000 and allowed to incubate in the dark for 15 minutes on shaker at room temperature. Following a wash step, each well was resuspended in 80 μL blocking buffer and read using a Luminex system.

[1] = molecular target: T2, TIM-1 protein on human CD4+ Th2 cells (Homo sapiens, UniProt Q96D42); test: FACS analysis of expression of TIM-1 protein on human CD4+ Th2 cells; type: binding
T2 construct: a major fraction of polarized human Th2 and Th1 cells do express TIM-1; endogenous in cells; host or cells: primary human CD4+ T cells from blood
T2 sequence (Q96D42 21-364): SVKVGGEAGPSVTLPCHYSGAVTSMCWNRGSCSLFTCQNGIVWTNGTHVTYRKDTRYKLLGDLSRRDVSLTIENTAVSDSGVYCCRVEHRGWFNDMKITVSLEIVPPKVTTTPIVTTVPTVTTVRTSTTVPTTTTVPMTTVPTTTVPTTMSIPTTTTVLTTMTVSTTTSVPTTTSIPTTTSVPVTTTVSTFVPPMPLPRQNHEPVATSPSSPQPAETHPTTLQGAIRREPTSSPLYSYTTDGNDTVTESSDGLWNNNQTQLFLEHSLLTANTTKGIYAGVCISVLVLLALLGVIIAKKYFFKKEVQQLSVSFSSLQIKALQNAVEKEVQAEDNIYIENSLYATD
Description: Mononuclear cells were isolated from human blood diluted 1:1 in PBS, by spinning over Ficoll for 20 minutes. The mononuclear cells were washed twice at 1000 rpm with PBS-Mg and Ca and re-suspended in Miltenyi buffer (Miltenyi Biotec Inc., Auburn, Calif.); PBS, 0.5% BSA, 5 mM EDTA at approximately 10^8 cells/mL. 20 μL of CD4 Miltenyi beads were added per 107 cells and incubated for 15 minutes on ice. Cells were washed with a 10-fold excess volume of Miltenyi buffer. A positive selection column (type VS+) (Miltenyi Biotec Inc., Auburn, Calif.) was washed with 3 mL of Miltenyi buffer. The pelleted cells were re-suspended at 10^8 cells per mL of Miltenyi buffer and applied to the washed VS column. The column was then washed three times with 3 mL of Miltenyi buffer. Following this, the VS column was removed from the magnetic field and CD4+ cells were eluted from the column with 5 mL of Miltenyi buffer. […]
FACS analysis was performed to determine the expression of TIM-1 protein as detected with five anti-TIM-1 monoclonal antibodies (2.59.2, 1.29, 2.70.2, 2.56.2, 2.45.1) on human and mouse resting CD4+ T cells, as well as human activated and human polarized CD4+ T cells.
Data is reported as the geometric mean of the fluorescence intensity.

Th1 cells = test: Cytokine assay (ELISA of culture supernatants), CD4+ Th1 cells; type: cell-based, human; settings: 5 μg/mL mAb
Description: (§1) IL-4, IL-5, IL-10, IL-13, and IFNγ production levels by activated Th1 and Th2 cell were measured in culture supernatants treated with anti-TIM-1 antibodies using standard ELISA protocols. Cytokine production by Th1 or Th2 cells treated with anti-TIM-1 antibodies was compared to Th1 or Th2 cells treated with the control PK16.3 antibody. In addition, the following samples were run in parallel as internal controls: i) anti-CD3 treated Th1 or Th2 cells, where no cytokine production is expected because of the absence of co-stimulation, ii) anti-CD3/anti-CD28 stimulated Th1 or Th2 cells, expected to show detectable cytokine production, and iii) untreated Th1 or Th2 cells. CD4+ T cells were isolated as described in the Example above. Isolated CD4+ lymphocytes were then spun down and re-suspended in DMEM 5% FCS plus additives (non-essential amino acids, sodium pyruvate, mercaptoethanol, glutamine, penicillin, and streptomycin) at 10^6 cells/mL. Falcon 6-well non-tissue culture treated plates were pre-coated overnight with anti-CD3 (2 μg/mL) and anti-CD28 (10 μg/mL) (600 μL total in Dulbecco's PBS) overnight at 4° C. The plates were washed with PBS and CD4+ lymphocytes were suspended at 500,000 cells/mL in Th2 medium: DMEM+10% FCS plus supplements and IL-2 5 ng/mL, IL-4 5 ng/mL, anti-IFN gamma 5 μg/mL and cells were stimulated 4-6 days at 37° C. and 5% CO2 in the presence of 5 μg/mL of mAb recognizing the TIM-1 protein or isotype matched negative control mAb PK16.3.
(§2) In another set of experiments, CD4+ lymphocytes were suspended at 500,000 cells/mL in Th1 medium: DMEM+10% FCS plus supplements and IL-2 5 ng/mL, IL12 5 ng/mL, anti-IL-4 5 μg/mL and stimulated 4-6 days 37° C. temp and 5% CO2 in the presence of 5 μg/mL TIM-1 or isotype matched control mAb PK16.3. Cells were washed two times in DMEM and resuspended in DMEM, 10% FCS plus supplements and 2 ng/mL IL-2 (500,000 cells/mL) in the presence of 5 μg/mL TIM-1 mAb or control PK16.3 mAb and cultured (rested) for 4-6 days at 37° C. and 5% CO2. The process of activation and resting was repeated at least once more as described above with the addition of anti-CD95L (anti-FAS ligand) to prevent FAS-mediated apoptosis of cells. Falcon 96-well non-tissue culture treated plates pre-coated overnight with anti-CD3 mAb at 500 ng/mL and costimulatory molecule B7H2 (B7 homolog 2) 5 μg/mL were washed and 100 μL of TIM-1 mAb treated Th1 or Th2 (200,000 cells) added per well. After 3 days of culture, the supernatants were removed and IL-4, IL-5, IL-10, IL-13, and IFNγ […]levels were determined by ELISA (Pharmingen, San Diego, Calif. or R&D Systems, Minneapolis, Minn.).

Th2 cells = test: Cytokine assay (ELISA of culture supernatants), CD4+ Th2 cells; type: cell-based, human; settings: for IL-5 production, percent of cytokine production detected using the control PK16.3 mAb / IL-10 production, percent of cytokine production detected using the control PK16.3 mAb / IL-13 production, percent of cytokine production detected using the control PK16.3 mAb / IL-4 production, percent of cytokine production detected using the control PK16.3 mAb: Th2
Description: as §1, §2
Each experiment used purified CD4+ cells isolated from whole blood samples from two independent donors. Cytokine production is reported as the percent of cytokine production detected using the control PK16.3 mAb. The anti-TIM-1 mAb used in each experiment is specified along the bottom row.

[2] = TH1, Donor 12 + 17, control PK16.3 mAb
[3] = 5 μg/mL mAb, compared to control PK16.3 mAb
[4] = TH2, Donor 12 + 17, control PK16.3 mAb, 5 μg/mL mAb

BIN (TIM-1 antigen; Table 8): 1 | Bin (TIM-1 antigen; Table 9): 1 | Geometric mean of fluorescence intensity ([1]; Polarized Human CD4+ Th2 Cells): 22.3 | Geometric mean of fluorescence intensity ([1]; Resting Human CD4+ T cells): 4.7
B1: mAb 1.29: fully human IgG2 kappa anti-TIM-1 monoclonal antibody; heavy chain SEQ ID NO: 2, light chain SEQ ID NO: 4 (antibody, listed as Homo Sapiens, V domains shown)
VH: QVQLQESGPGLVKPSETLSLTCTVSGGSVSSGGYYWSWIRQPPGKGLEWIGFIYYTGSTNYNPSLKSRVSISVDTSKNQFSLKLSSVTAADAAVYYCARDYDWSFHFDYWGQGTLVTVSSA
VL: DIQMTQSPSSLSASIGDRVTITCRASQGIRNDLGWYQQKPGKAPKRLIYAASSLQSGVPSRFSGSGSGTEFTLTISSLQPEDFATYYCLQHNSYPLTFGGGTKVEIKR
Geo Mean Ratio (relative to negative control) BT549 (BT549 cells): 1.2 | IL-10 release from Th1 cells (Th1 cells; compared to control PK16.3 mAb): significantly inhibited | IL-13 release from Th1 cells (Th1 cells; compared to control PK16.3 mAb): significantly inhibited | IL-4 Percentage of Control Antibody (Th1 cells; [2]): 81.05 Percentage of Control Antibody | IL-5 Percentage of Control Antibody (Th1 cells; [2]): 94.63 Percentage of Control Antibody | IL-10 Percentage of Control Antibody (Th1 cells; [2]): 60.77 ** Percentage of Control Antibody | IL-13 Percentage of Control Antibody (Th1 cells; [2]): 73.95 *** Percentage of Control Antibody | INF γ Percentage of Control Antibody (Th1 cells; [2]): 93.51 Percentage of Control Antibody | IL-5 release from Th2 cells (Th2 cells; [3]): significantly inhibited | IL-10 release from Th2 cells (Th2 cells; [3]): significantly inhibited | IL-13 release from Th2 cells (Th2 cells; [3]): significantly inhibited | IL-4 Percentage of Control Antibody (Th2 cells; [4]): 112.54 Percentage of Control Antibody | IL-5 Percentage of Control Antibody (Th2 cells; [4]): 80.26 Percentage of Control Antibody | IL-10 Percentage of Control Antibody (Th2 cells; [4]): 44.45 * Percentage of Control Antibody | IL-13 Percentage of Control Antibody (Th2 cells; [4]): 48.91 ** Percentage of Control Antibody | INF γ Percentage of Control Antibody (Th2 cells; [4]): 112.54 Percentage of Control Antibody | IL-5 production, percent of cytokine production detected using the control PK16.3 mAb (Th2 cells; Donor ID 12): 2% | IL-10 production, percent of cytokine production detected using the control PK16.3 mAb (Th2 cells; Donor ID 12): 109% | IL-13 production, percent of cytokine production detected using the control PK16.3 mAb (Th2 cells; Donor ID 12): 91% | IL-4 production, percent of cytokine production detected using the control PK16.3 mAb (Th2 cells; Donor ID 12 + 14): 626% | IL-5 production, percent of cytokine production detected using the control PK16.3 mAb (Th2 cells; Donor ID 12 + 14): 5% | IL-10 production, percent of cytokine production detected using the control PK16.3 mAb (Th2 cells; Donor ID 12 + 14): 83% | IL-4 production, percent of cytokine production detected using the control PK16.3 mAb (Th2 cells; Donor ID 13 + 14): 130% | IL-5 production, percent of cytokine production detected using the control PK16.3 mAb (Th2 cells; Donor ID 13 + 14): 122% | IL-10 production, percent of cytokine production detected using the control PK16.3 mAb (Th2 cells; Donor ID 13 + 14): 19% | IL-13 production, percent of cytokine production detected using the control PK16.3 mAb (Th2 cells; Donor ID 13 + 14): 17% | IL-5 production, percent of cytokine production detected using the control PK16.3 mAb (Th2 cells; Donor ID 14): 67% | IL-10 production, percent of cytokine production detected using the control PK16.3 mAb (Th2 cells; Donor ID 14): 45% | IL-13 production, percent of cytokine production detected using the control PK16.3 mAb (Th2 cells; Donor ID 14): 100% | block of Th2 cytokines across donor groups (Th2 cells; multiple experiments with different donors): reproducibly block one or more of the Th2 cytokines
